Experiment [1] concerns the target T1, human C1s mutant M13 (A292D) (human, UniProt P09871 16-688).
T1 construct: The entry is the mutant itself
T1 sequence: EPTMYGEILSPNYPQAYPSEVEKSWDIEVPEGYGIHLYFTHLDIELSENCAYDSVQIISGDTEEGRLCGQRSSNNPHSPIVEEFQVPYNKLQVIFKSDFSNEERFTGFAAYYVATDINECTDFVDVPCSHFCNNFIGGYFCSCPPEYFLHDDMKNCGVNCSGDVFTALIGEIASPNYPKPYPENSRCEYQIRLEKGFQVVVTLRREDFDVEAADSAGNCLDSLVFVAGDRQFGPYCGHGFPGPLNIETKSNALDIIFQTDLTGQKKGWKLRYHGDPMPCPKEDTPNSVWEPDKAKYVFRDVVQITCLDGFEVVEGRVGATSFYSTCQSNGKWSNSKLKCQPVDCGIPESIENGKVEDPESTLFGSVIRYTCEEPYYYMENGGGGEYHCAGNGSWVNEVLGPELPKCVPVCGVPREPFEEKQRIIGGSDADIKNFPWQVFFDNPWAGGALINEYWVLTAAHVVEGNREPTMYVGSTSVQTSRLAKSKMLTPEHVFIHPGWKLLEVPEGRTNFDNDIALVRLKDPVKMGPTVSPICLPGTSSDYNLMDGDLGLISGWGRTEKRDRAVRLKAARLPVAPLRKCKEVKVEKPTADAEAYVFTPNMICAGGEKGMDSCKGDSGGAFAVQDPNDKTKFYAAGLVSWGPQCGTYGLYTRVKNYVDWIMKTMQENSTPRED
Briefly: ELISA, plate coated with human C1s mutant M13: A292D, OD450nm. The protocol: (§1) ELISA was carried out by first coating 96-well plates with 200 ng/well of full-length or truncated C1s proteins overnight. The next morning, plates were blocked with SuperBlock T20 blocking buffer (Thermo Scientific 37536) for 1 h with gentle shaking. Then, various concentrations of anti-C1s antibodies diluted in SuperBlock T20 blocking buffer were added to the plates and incubated for 1 h with gentle shaking. Mouse IgG (Sigma-Aldrich 15381) and human IgG1 (BioXCell BP0297) were used as negative controls. The plates were washed before incubating with HRP conjugated secondary antibodies diluted in SuperBlock T20 blocking buffer (goat anti-mouse IgG (H+L) cross-adsorbed secondary antibody HRP (Invitrogen G-21040) or goat anti-human IgG antibody, HRP conjugate (Millipore AP309P)) for 1 h with gentle shaking. At last, the plates were washed and color developed with ELISA liquid HRP substrate (Sigma-Aldrich), followed by stopping the reaction with addition of 1M H₂SO₄ in the same volume as the ELISA liquid substrate. Bound antibody was measured by absorbance at OD₄₅₀ₙₘ.
(§2) Binding of anti-C1s antibodies to mutants M1-M20 of human C1s was measured by ELISA as described in Example 4, and results are shown in FIGS. 6B-6U. All anti-C1s humanized variants including hz2-7(H1L2), hz2-8(H1L2 G80A) and hz2-8(H1L2 G80A/T82A) maintained strong binding properties to the majority (16 out of 20) of C1s mutants including M1 (FIG. 6B), M2 (FIG. 6C), M3 (FIG. 6D). M4 (FIG. 6E), M7 (FIG. 6H), M8 (FIG. 6I), M10 (FIG. 6K), M11 (FIG. 6L), M12 (FIG. 6M), M13 (FIG. 6N), M15 (FIG. 6P), M16 (FIG. 6Q), M17 (FIG. 6R), M18 (FIG. 6S), M19 (FIG. 6T) and M20 (FIG. 6U).
A general note: ELISA stands for enzyme-linked immunosorbent assay.

The target in experiment [2] is T2, human C1s mutant M7 (D343Y & E351A) (human, UniProt P09871 16-688).
T2 construct: The entry is the mutant itself
T2 sequence: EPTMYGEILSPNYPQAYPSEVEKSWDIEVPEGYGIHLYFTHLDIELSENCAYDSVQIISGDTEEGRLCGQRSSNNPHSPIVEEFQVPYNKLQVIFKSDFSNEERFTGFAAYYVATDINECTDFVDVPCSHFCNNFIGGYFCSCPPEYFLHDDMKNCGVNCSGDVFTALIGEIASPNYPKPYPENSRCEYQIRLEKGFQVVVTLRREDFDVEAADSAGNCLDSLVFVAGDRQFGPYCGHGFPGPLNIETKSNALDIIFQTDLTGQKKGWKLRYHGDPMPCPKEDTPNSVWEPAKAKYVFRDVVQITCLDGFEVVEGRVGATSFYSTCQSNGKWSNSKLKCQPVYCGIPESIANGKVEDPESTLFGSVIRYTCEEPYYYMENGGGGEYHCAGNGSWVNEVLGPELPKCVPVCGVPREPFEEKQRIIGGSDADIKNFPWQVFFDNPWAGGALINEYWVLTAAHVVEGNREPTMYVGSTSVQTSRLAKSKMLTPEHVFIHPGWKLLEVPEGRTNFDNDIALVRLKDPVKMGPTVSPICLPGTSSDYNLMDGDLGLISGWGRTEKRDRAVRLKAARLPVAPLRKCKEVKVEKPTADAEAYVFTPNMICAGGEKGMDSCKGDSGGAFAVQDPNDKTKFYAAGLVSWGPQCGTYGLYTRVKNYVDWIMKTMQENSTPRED
Nature of the experiment: ELISA, plate coated with human C1s mutant M7: D343Y, E351A, OD450nm. The protocol:
as §1, §2

The target of experiment [3] is T3, human C1s mutant M4 (P280A & E282K) (human, UniProt P09871 16-688).
T3 construct: The entry is the mutant itself
T3 sequence: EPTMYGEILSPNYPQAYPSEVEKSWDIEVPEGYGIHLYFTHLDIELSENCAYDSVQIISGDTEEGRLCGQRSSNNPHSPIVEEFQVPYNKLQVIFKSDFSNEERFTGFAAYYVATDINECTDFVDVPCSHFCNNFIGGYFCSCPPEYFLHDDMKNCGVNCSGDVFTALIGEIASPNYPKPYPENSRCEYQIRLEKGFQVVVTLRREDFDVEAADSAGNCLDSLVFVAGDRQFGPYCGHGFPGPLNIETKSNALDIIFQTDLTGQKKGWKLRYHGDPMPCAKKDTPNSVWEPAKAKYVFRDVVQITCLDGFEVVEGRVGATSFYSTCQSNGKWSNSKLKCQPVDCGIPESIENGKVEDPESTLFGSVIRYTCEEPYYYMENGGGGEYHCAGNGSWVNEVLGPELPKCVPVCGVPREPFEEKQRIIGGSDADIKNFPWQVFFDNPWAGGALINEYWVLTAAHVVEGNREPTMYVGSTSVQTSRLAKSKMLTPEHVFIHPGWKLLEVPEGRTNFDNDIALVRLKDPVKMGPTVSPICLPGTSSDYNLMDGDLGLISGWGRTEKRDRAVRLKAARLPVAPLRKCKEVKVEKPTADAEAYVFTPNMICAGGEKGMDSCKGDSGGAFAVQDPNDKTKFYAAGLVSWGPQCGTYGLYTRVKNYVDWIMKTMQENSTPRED
Nature of the experiment: ELISA, plate coated with human C1s mutant M4: P280A, E282K, OD450nm. The protocol: as §1, §2

B1: Anti-C1s antibody hz2-8 (H1L2 G80A) (antibody, V domains shown)
VH: QVQLVQSGAEVKKPGASVKVSCKASGFNIKEYYMHWVRQAPEQGLEWMGWIDPENADTIYAQKFQGRVTITADTSTNTAYMELSSLRSEDTAVYYCARSRLFFAYWGQGTLVTVSS
VL: DIQMTQSPKSLSASVGDRVTITCRASQDVRTALDWYQQKPGQSPKLLIYSASYRYSGVPSRFSGSGSGTDFTLTISSLQPEDFATYYCQQQYTTPYTFGQGTKLEIKR
notes: Humanized variant with G80A in HC CDR2 (already in the entry), human IgG1 / kappa
For the molecule B1, the 50% effective concentration (EC50) was determined as 0.006 µg/mL in experiment [1], 0.012 µg/mL in experiment [2] and 0.01 µg/mL in experiment [3].

B2: Anti-C1s antibody hz2-8 (H1L2 G80A/T82A) (antibody, V domains shown)
VH: QVQLVQSGAEVKKPGASVKVSCKASGFNIKEYYMHWVRQAPEQGLEWMGWIDPENADAIYAQKFQGRVTITADTSTNTAYMELSSLRSEDTAVYYCARSRLFFAYWGQGTLVTVSS
VL: DIQMTQSPKSLSASVGDRVTITCRASQDVRTALDWYQQKPGQSPKLLIYSASYRYSGVPSRFSGSGSGTDFTLTISSLQPEDFATYYCQQQYTTPYTFGQGTKLEIKR
notes: Humanized variant with G80A and T82A in HC CDR2 (already in the entry), human IgG1 / kappa
For B2, the figures for the 50% effective concentration (EC50) in experiment [1], in experiment [2] and in experiment [3] were 0.009 µg/mL, 0.011 µg/mL and 0.01 µg/mL, respectively.

B3: Anti-C1s antibody hz2-7(H1L2) (antibody, V domains shown)
VH: EVQLLESGGGLVQPGGSLRLSCAASGFTFSNYFMNWVRQAPGKGLEWVSEIRLKFTNYATHYADSVKGRFTISRDDSKSTLYLQMNSLRAEDTAVYYCTRDYGSRNGYFDYWGQGTLVTVSS
VL: DIVMTQTPLSLPVTPGEPASISCRSSKSLLHSNGNTFLYWFLQKPGQSPQLLIYRMSNLASGVPDRFSGSGSGTDFTLKISRVEAEDVGVYYCMQHLEYPYTFGGGTKLEIKR
notes: Humanized, human IgG1 / kappa; also called hz2-7(1L2)
As to B3, the 50% effective concentration (EC50) in experiment [1] came out at 0.005 µg/mL; in experiment [2], 0.015 µg/mL; in experiment [3], 0.013 µg/mL.

In general, EC50 refers to the concentration that produces a half-maximal response. A low value points to a more potent agent.

Values taken from patent US20230051715A1 (MABWELL THERAPEUTICS, published 2023).
